According to article PMC9513677, “Systematic multi‐level analysis of an organelle proteome reveals new peroxisomal functions” (Molecular Systems Biology, 2022):
Primed or numbered codes have the meaning given here. Where no end group is shown, it is not given here. FITC′ = fluorescein isothiocyanate

Biological target: T1, Full‐length Saccharomyces cerevisiae Pex5 (purified, for fluorescence anisotropy) (Saccharomyces cerevisiae, UniProt P35056 1-612)
T1 construct: Pex5, peroxisomal targeting factor (PTS1 receptor), Saccharomyces cerevisiae, full length; also called purified yeast Pex5; source: expressed in autoinduction medium, purified (Ni‐NTA, TEV digestion, second Ni‐NTA, gel filtration Superdex 200)
T1 sequence (looked up): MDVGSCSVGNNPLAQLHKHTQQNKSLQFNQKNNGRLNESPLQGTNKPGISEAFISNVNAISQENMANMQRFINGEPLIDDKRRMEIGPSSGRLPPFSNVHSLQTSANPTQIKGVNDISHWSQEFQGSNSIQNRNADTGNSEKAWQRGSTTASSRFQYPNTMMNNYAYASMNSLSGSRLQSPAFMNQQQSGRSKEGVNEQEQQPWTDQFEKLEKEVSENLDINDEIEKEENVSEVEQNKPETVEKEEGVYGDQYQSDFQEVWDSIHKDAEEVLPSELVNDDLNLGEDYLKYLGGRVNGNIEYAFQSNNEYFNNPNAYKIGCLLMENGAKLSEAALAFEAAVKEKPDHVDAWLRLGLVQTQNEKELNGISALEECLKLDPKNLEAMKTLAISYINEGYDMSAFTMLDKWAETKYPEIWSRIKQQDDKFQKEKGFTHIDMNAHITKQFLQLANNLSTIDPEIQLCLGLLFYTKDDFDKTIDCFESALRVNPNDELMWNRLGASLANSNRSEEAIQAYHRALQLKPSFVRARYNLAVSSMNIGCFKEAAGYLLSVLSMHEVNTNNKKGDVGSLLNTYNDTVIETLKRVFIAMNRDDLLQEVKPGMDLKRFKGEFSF
Experiment: fluorescence polarisation; fluorescence anisotropy; FITC peptide at 10 nM, Pex5 in serial dilution; 50 mM Hepes pH 7.5, 150 mM NaCl; black 96-well plates, excitation/detection 470/530 nm; three independent experiments; binding-saturation model with one binding site
Details: both partners purified

B1: FITC-labeled peptide of the carboxyl terminus of Idp3 (known PTS1 motif) (peptide)
peptide: {FITC′}-YEDKKGMCKL
notes: tyrosine added at the N terminal of the Idp3 peptide for concentration determination; not part of Idp3; Idp3, Saccharomyces cerevisiae, carboxyl terminus with the PTS1 motif; also called PTS1 motif from Idp3; source: synthetic peptide (Genscript)
Kd: 5.5 ± 0.5 µM

B2: FITC-labeled peptide of the carboxyl‐terminal 10 amino acids of Yhl045w (Pxp3) (peptide)
peptide: {FITC′}-RKRVLGVAYL
notes: Yhl045w (Pxp3, Peroxisomal protein 3), Saccharomyces cerevisiae, the carboxyl-terminal 10 amino acids; also called Pxp3 motif; Pxp3 targeting peptide; source: synthetic peptide (Genscript)
Kd: 9.5 ± 2.9 µM
